The target of test [1] is T1, recombinant human IL-1β (human, UniProt P01584 117-269). Put plainly: cell-based or functional assay.
Test [2] deals with T1, recombinant human IL-1β. Put plainly: SPR. The protocol: Antigen binding affinities of anti-IL-1β antibodies were measured by surface Plasmon resonance (SPR).
For test [3], the target named is mouse IL-1β (mouse, UniProt P10749 118-269). Put plainly: cross-species reactivity assay, antibody titrated on IL-1β of each species, readout OD405nm.
Test [4] deals with monkey IL-1β (monkey). The test is described as above.
monkey IL-1β (monkey), sequence (P48090 117-269): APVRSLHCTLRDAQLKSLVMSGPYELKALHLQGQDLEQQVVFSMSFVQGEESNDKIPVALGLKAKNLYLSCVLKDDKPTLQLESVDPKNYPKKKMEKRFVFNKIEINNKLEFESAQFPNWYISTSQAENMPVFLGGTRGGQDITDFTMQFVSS
For test [5], the target named is T1, recombinant human IL-1β. Described as above.
In test [6] the target is T1, recombinant human IL-1β. Put plainly: method not given.

The Kd is the free concentration of one partner at which half of the binding sites on the other are occupied at equilibrium, for simple one-to-one binding. For orientation: koff means a measure of how fast the partners let go of each other. By kon is commonly meant the rate constant with which the complex forms. The term EC50 (read off the curve) denotes the midpoint of the concentration-response curve.

mouse IL-1β, sequence (P10749 118-269 limits assumed): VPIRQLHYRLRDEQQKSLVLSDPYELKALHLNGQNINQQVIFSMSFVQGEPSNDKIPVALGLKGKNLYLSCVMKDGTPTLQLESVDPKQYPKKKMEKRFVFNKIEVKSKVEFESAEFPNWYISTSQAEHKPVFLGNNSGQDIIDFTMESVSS

B1: Q17 rabbit anti-IL-1β antibody (antibody, V domains shown)
VH: QSVEESGGRLVTPGTPLILTCTVSGFSLDVYTVTWVRQAPGKGLEWIGYIWSGGSASYASWAKGRFTISKTSTTVDLKISSPTTEDTATYFCARVKMISNIETFDPWGPGTLVTVSS
VL: AYDMTQTPASVEVVVGGTVTIKCQASERIYSGLAWYQQKPGQRPKLLIYRASTLASGVPSRFSGSGSGTEFTLTISDLECADAATYYCHQGVSSSDIDNVFGGGTEVVVK
As to B1, the “IC 50, neutralization of IL-1β-induced TF-1 cell proliferation” value (from here on “IC 50, neutralization”) in test [1] turned out to be 1.13 ng/mL.

B2: Q34 rabbit anti-IL-1β antibody (antibody, V domains shown)
VH: QSVEESGGRLVTPGTPLILTCTVSGFSLDVYTVTWVRQAPGKGLEWIGYIWSGGSASYASWAKGRFTISKTSTTVDLKISSPTTEDTATYFCARVKMISNIETFDPWGPGTLVTVSS
VL: AYDMTQTPASVEVVVGGTVTIKCQASERIYSGLAWYQQKPGQRPKLLIYRASTLASGVPSRFSGSGSGTEFTLTISDLECADAATYYCHQGVSSSDIDNVFGGGTEVVVK
On to B2, for which the “IC 50, neutralization” value in test [1] worked out at 0.55 ng/mL.

B3: clone Q26 rabbit anti-IL-1β antibody (antibody, V domains shown)
VH: QSVEESGGRLVTPGTPLILTCTVSGFSLDVYTVTWVRQAPGKGLEWIGYIWSGGSASYASWAKGRFTISKTSTTVDLKISSPTTEDTATYFCARVKMISNIETFDPWGPGTLVTVSS
VL: AYDMTQTPASVEVVVGGTVTIKCQASERIYSGLAWYQQKPGQRPKLLIYRASTLASGVPSRFSGSGSGTEFTLTISDLECADAATYYCHQGVSSSDIDNVFGGGTEVVVK
notes: Recombinant rabbit IgG expressed in 293-6E cells; the rabbit constant regions are not; also called parental rabbit Q26
With B3, in test [2], the Kd is 199 pM, the koff stood at 3.8e-05 s⁻¹ and the kon was determined as 191000 M⁻¹ s⁻¹. Besides, the “IC 50, neutralization” value in test [1] came to 0.54 ng/mL.

B4: APX002 (humanized Q26) (antibody, V domains shown)
VH: EVQLVESGGGLVQPGGSLRLSCAVSGFSLDVYTMTWVRQAPGKGLEWIGYIWSGGSASYASWAKGRFTISKDSSKNTVYLQINSLRAEDTAVYFCARVKMISNIETFDPWGPGTLVTVSS
VL: DIQMTQSPSSVSASVGDRVTIKCQASERIYSGLAWYQQKPGKRPKLLIYRASTLASGVPSRFSGSGSGTDFTLTISSLQPEDFATYYCQQGVSSSDIDNVFGGGTKVEIK
As to B4, in test [3], the binding result was “no binding (tested: 10 ug/ml)”. Also, the “EC50 (read off the curve)” value in test [4] and in test [5] was about 600 ng/mL throughout. Further, the Kd in test [6] was 199 pM.

These data come from patent US20130330355A1 (APEXIGEN, published 2013).
